Measured values as given in the nanobody polyreactivity screen of Harvey et al. (2022).

assay: yeast display, Sf9 membrane polyspecificity reagent, FACS + sequencing; frameworks hold sequencing errors
Outline: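 Galactose induction of a Saccharomyces cerevisiae BJ5465 synthetic nanobody display library ran 36–48 hours. The cells were then stained for 1 hour at 4 °C with 10% biotinylated, detergent-solubilized Sf9 membrane reagent, pulled down on streptavidin microbeads and FACS-sorted into low and high (top ~1%) gates on expression and reagent-binding fluorescence. Labels for polyreactivity follow the gate of origin.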

Sequence | polyreactivity (PSR sort gate)
QVQLVESGGGLVQAGGSLRLSCAASGRTFTYYGMGWYRQAPGKERELVAAITERGDSTYYADSVKGRFTISRDNAKNTVYLQMNSLKPEDTAVYYCAAAEHLTRPSSPTQDGDHWGQGTQVTVSS | low polyreactivity
QVQLVESGGGLVQAGGSLRLTCAASGVTFRYYAMVWYRQAPGKERELVAAITGSGTRTYYADSVKGRFTISRDNAKNTLYLQMNSLKPEDTAVYYCNAPRQPRWFDYWGQGTQVTVSS | high polyreactivity
QVQLVESGGGLVQAGGSLRLSCAASGRIFLRNAMGWYRPAPGKERELVAGISSIGGITYYADSVKGRFTISRDNAKNTVYLQMNILKPEDTAVYYCAKGLYLHTSGHGPYDYWGQGTQVTVSS | low polyreactivity
QVQVVESGGGLVQAGGSLRLSCAASGSTFSIYAMGCYRQAPGKERELVAAISSSGGSTYYADSVKGRFTISRDNGKNTVYLQMNSLKPEDTAVYYCNKRKYHVRYDYWGQGTQVTVSS | low polyreactivity
QVQLVESGGGLVQAGGSLRLSCAASGLTFGANDMGWYRQAPGKERELVAAIDWSGGSTFYADSVKGRFTISRDNAKNTVYLQMNSLKPEDTAVYYCAALGFGYPYPEYDYWGQGTQVTVSS | low polyreactivity
QVQLVESGGGLVQAGGSLRLSCAASGSIFTGYTMGRYRQATGKERELVAAITWNGGSTYYADSVKGRFTISRDNAKNTVYLQMNSLKPEDTAVYYCAAVPYTPSPYTYGYWGQGTQVTVSS | high polyreactivity
QVQLVESGGGLVQAGGSLRLSCAASGRILRGNAMGGYRQAPGKERELVADINYSDGSTYYADSVKGRFTISRDNAKNTVYLQMNSLKPEDTAVYYCAKKNPLVFTSGMDYWGQGTQVTVSS | low polyreactivity
QVQLVESGGGLVKAGGSLRLSCVASGLMFGYCAMGWYRQPPGTERELVAVISWSGTSRYYADSVKGRFTISRDNAKNTVYLQMNSLKPEDTAVYYCIADTYGYYLWTGAVSAGDDYWVQGTQVTVSS | low polyreactivity
QVQLVESGGGLVQAGGSLRLSCAASGRIFKYYARGWYRQAPGKERELVAAISGSGGTHYADSVKGRFTISRDNAKNTVYLQMNSLKPEDTAVYYCAVRWRGNGQGGSWGQGTQVTVSS | high polyreactivity
QVQLVESGGGLVQAGGSLRLICAASGSTLVANAMGGYRQAPGKERELVAAISSGGITYYADSVKGRFTISRDNAKNTVYLQMNSLKPEDTAVYYCAKRGQGFQFGRDYWGQGTQVTVSS | low polyreactivity
QVQLVESGGGLVQAGGSLRLSCAASGSIFEGYVMGWYRQAPGKERELVATISFSGGSTYYADSVKGRFTISRDNAKNTVYLQMTSLKPEDTAVYFCNALVYHTKGDYGYWGQGTQVTVSS | low polyreactivity
QVQLVESGGGLVQAGGILRLSSAASGRTILSYAMGWYRQAPGKERELVAAITRSGGGTFYADSVKGRFTLSRDNAKNTVYVQMNSLKPEDTAVYYCAARYYNYASPTRFKYNYWGQGTQVTVSS | high polyreactivity
QVQLVESGGGLVQAGGSLRLSCAASGFIFYYYAMGWYRQAPGKERELVAAISVRGGRTYYADSVKGRFTISRDNAKNTVYLQMNSLKPEDTAVYYCAADLYNRGRGSSQSYRTGYDYWGQGTQVTVSS | high polyreactivity
QVQLVESGGGLVQAGGSLRLSCAASGYTFYIYVMGWYRQAPGKERELVAAISSGDSTNYADSVKGRFTISRDNAKNTVYLQMNSLKPEDTAVYYCNAVHRSIARGGGMDYWGQGTQVTVSS | low polyreactivity
QVQLVESGGGLVQAGGSLRLSCAASGSTFILNAMGWYRQAPGKERELVATISSSDTSTYYADSVKGRFTISRDNAKNTVYLLMNSLKPDDTAVYFCNADYYTTSYLQRVYHYGVEYDYWGQGTQVTLSS | low polyreactivity
QVQLVESGGGLVQAGGSLRLSCAASGSTFSYNAMGWYIQAPGKERELVAAISWSGGSTYYADSVKGRFTISRDYAKNTVYLQMNSLKPEDTAVYYCAADSPYGYYEGDYWGQGTQVTVSS | low polyreactivity
QVLLVESGGGLVQAGGSLRLSCAASGSTFYYYGMGWYRQAPGKEREFVAAISWGGGSTRYADSVKGRITISRDNAKNTVYLQMNSLKPEDTAVYYCAARYPHYDYYYWGQGTQVTVSS | high polyreactivity
QVQLVESGGGIVQAGGSLRLSCAASGLIFFTYAMGWYSQAPGKERELVAAITTGGSTNYADSVKGRFTISRDNAKKTVYLQMNSLKPEDTAVYYCAAQRVSVLLFVRHDYWGQGTQVTVSS | low polyreactivity
QVQLVESVGGLVQAGGSLRLSSAASGIIFRRYPMVWYREPPGKDRELVAAISSGGRTYYADSGKGRFTISRDNAKNSVYLHMNSLKQEDTAVYYCAARWWYKNKYWGQGTQVTVSS | high polyreactivity
QVQLVYSGGGLVQAGGSLRISCAPSGRTYRKYAMGWYIQAPGKERELVAANSRSGGSTYYANSVKGRFTISRDIAKNTFYLQMNSLKPDDTAVYYCAAVPVHTGSLYWGFTTGYDYWGQVTQVTVSS | low polyreactivity
QFQLVESGGGLVQAGGSLRLSCAASGFIFPLYTMGWYRQAPGKETELVAAIDGGGTTYADSVKGRFTISRDNAKNTVYLQMNSLKPEDTAVYYCAADWYYQYSIYRYGYWGQGTQVTVSS | low polyreactivity
QFQLLESGGGLVQAGSSLRLSCAASGSTFKYYTMGWYRQAPGKERELVATIRGAGTTYADSVKGRFTISRDNAKHTVYLQMNSLKPEDTAVYYCARLPRGDMDYWGQGTQVTVSS | low polyreactivity

Sequence | polyreactivity (PSR sort gate)
QVQLVESGGGLVQAGGSLRLSCAASGITYTVYAMGWYRQAPGKERELVAVINESGGSTYYADSVKGRFTISRDNAKNTVYLQMNSLKPEDTAVYYCNKTRVYVSSTYDYWGLGTQVTVSS | low polyreactivity
QVQLVESGGGLVQAGGSLRLSCAASGRIFYGYVMGWYRQAPGKERELVAAITWSGSRTYYADSVKGRFTISRDNAKNTVYLQMNSLKPEDTAVYYCAARIPSDGYYYWGQGTQVTVSS | high polyreactivity
QVQLVESGGGLVQAGGSLRLSCAASGSTFRIYAMGWYRQAPGKERELVAGITRRGGSTFYADSVKGRFTISRDNAKNTVYLQMNSLKPEDTAVYYCAARFRGGMDYWGQGTQVTVSS | high polyreactivity
QVQLVESGGGLVQAGGSLRLSCAASGRIFSVNAMGWYRQAPGKERELVAAITTRGGTTYYADSVKGRFTISRDNAKNTVSLQMNSLKPEDTAVYYCAAESSWYVYWEWAHDYWGQGTQVTVSS | low polyreactivity
QVQLGESGGGLVQAGGSLRLSCAASGSTFNIYAMGWSRQSPGNERELVAAISSCGGRTYYADSVKGRFTISLDNAKNTVYLQMNSVKPEDTAVYYCAAVRSYYRGYDYWGQGTQVTVSS | high polyreactivity
QVQLVESGGCLVQAGGSLRLSCAASGRIFVYYAMGWYRQAPGKERELVAGISLSGGSTYYADSVKGRFTISRDNAKNTVYLQMYSLKPEDTAVYDSAIEVNAGYYVWYDYWGQGTQVTVSS | low polyreactivity
QVQLVESGGGLVQAGGSLRLSCAASGFTFWAYAMGWYRQAPGKETELVAAISKTGGRTYYADSVKGRFTISRDNAKNTVYLQMISLKPEDTAVYYCAVDITGLYYPVDYWGQGTQVTVSS | high polyreactivity
QVQLVESGGGLVQAGGSLRLSCAASGSTFGHYAMGWYIQAPGKERELVAGITDTDNHELRRLCEGRFTISRDNAKNTVYLQMNSLKPEDTAVYYCNADDTYYPLCGITGYDYWGQGTQVTVSS | low polyreactivity
QVQLVESGAGLVQAGGSLRLSCAASGRTFDKYAMGWYRQAPGKDRELVAAISGSGGRTYYADSVKGSFTISRDIAKNTVYLQMNSLKPEDTAFYYCAGDTGSYTYYYWGKGTQVTVSS | high polyreactivity
QVQLVESGGGLVQAGCSLRLSCAASGITFVYYAMGRYRQAAGKERELVAAITTGGSTNYADSVKGRFTISRDNAKYTVYLQMNSLKPEDTAVYYCNKRPVILYDYWGQGTQVTVSS | low polyreactivity
QVQLVESGGGLVQAGGSLRLSCAASGSTFSRYAMGWYRQAPGKERELVAAISSSGGSTYYADSVKGRFTISRDNAKNTVYLQMNSLKPEDTAVYYCAVAVNGVSRIKYYYWGQGTQVTVSS | high polyreactivity
QVQLVDSGGGLVQAGGSLRLSSPASGFIIGLYAMGWYRQEPGKERELVAAISTSSGITYYADSVKGRFTISRDNAKNSVYLQMNSLKPEDTAVYYCAARGHYYDFCGQGTQVTVSS | low polyreactivity
QVQLVESGGGLVQAGGSLRLSCAASGSIFGFKVMGWYRQEPGKERELVAAITYSGGSTYYADSVKGRFTISRANAKNTVYIQMNSLKPEDTAVYYCAADTFTPYWWYSSLDEYWGQGTQVTVSS | high polyreactivity
QVQLVESGGGLVQAGGSLRISCAPSGFIYSYAMGWYRQAPGKERELVASITLNGGSTYYADSVKGRFTISRDNAKNTVYLQMNSLKPEDTAVYYCNADRASLSIGGYYRLWYDYWGQGTQVTVSS | high polyreactivity
QVQLVESGGGLVQAGGSLRLSCAASGTFKWYAMGWYRQAPGKERELVAVISSSGGTTYYADSVKGRFTISRDTAKITVYLQMNSLKPEDTAFYYCNAAKLFRYDYWGQGTQVTVSS | high polyreactivity
QVQLVESGGGLVQAGGSLRLSCAASGFIFGKYAMGWYRQAPGKEREFVAAITGNGGSTYYADSVKGRFTISRDNAKNTVYLQMNSLKPEDTAVYYCNADRGYRRRSGMDYWGQGTQVTVSS | low polyreactivity
QVQLVESGGGLVQAGGSLRLSCAASGRTFYFYTMGWYRQAPGKERELVATINWSGTSTYYADSVKGRFTISRDNAKNTVYLQMNSLKPEDTAVYYCAVRGGRYKYGYDYWGQGSQVTVSS | high polyreactivity
QVQLVESGGGLVQAGGSLRLSCAASGGTFHYYAMGWYRQAPGKERELVAAISWSGGSTYYADSVKGRFTISRDNAKNTVYLQMNSLKPEDTAVYYCAAETYPYLFHTYDYWGQGTQVTVSS | low polyreactivity
QVQLVESGGGLVQAGGSLRLSCAASGSTFGKYAMGWYRQAPGKERELVASISRSGASTYYADSVKGRFTISRDNAKNTVYLQMNSLKPEDTAVYYCNKARNPEGYWRYDYWGQGTQVTVSS | high polyreactivity
QVQLVESGGGLVQAGGSLRLSCAASGRTFNYYAMGWYRQAPGKERELVAAISSSGGRTYYADSVKGRFTISRDNAKNTVYLQMNSLKPEDTAVYYCAADSFYYRPEYDYWGQGTQVTVSS | low polyreactivity
QVQLVESGGGLVQAGGSLRLSCAASGRTFKRNPMGWYRQAPGKERELVAAISGTGSTNYADSVKGRFTISRDNAKNTVYLQMNSLKPEDSAVYYCNADIYSYRYPYVYWGQGTQVTVSS | low polyreactivity
